In patent publication US20150203575A1 (Genentech, published 2015):

T1: mouse CD99 expressed on 293T cells (mouse, UniProt Q8VCN6 29-175, sialylated O-glycans at Thr-45 and Thr-50 (cited as relevant for PILRα recognition))
T1 construct: whole, on cells; also called mCD99; mCD99 transfectants
T1 sequence (looked up): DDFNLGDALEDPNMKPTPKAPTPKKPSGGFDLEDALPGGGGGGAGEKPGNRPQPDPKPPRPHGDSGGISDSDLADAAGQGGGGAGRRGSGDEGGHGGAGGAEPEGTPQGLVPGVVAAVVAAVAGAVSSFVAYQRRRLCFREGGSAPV

T2: human NPDC1 expressed on cells (human, UniProt Q9NQX5 35-325)
T2 construct: also called hNPDC1; hNPCD1
T2 sequence: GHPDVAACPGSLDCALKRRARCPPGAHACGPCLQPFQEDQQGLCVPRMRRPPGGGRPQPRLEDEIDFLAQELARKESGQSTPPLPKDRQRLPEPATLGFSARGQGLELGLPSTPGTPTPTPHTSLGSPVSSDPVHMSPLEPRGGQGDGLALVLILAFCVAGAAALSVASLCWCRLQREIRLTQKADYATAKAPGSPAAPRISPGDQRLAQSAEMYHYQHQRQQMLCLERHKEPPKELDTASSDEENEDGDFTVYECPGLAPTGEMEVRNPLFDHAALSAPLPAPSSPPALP

T3: MAG expressed on cells (human, UniProt P20916 20-626)
T3 construct: Clone of the Origene human cDNA library; also called Myelin associated glycoprotein; SIGLEC4A
T3 sequence: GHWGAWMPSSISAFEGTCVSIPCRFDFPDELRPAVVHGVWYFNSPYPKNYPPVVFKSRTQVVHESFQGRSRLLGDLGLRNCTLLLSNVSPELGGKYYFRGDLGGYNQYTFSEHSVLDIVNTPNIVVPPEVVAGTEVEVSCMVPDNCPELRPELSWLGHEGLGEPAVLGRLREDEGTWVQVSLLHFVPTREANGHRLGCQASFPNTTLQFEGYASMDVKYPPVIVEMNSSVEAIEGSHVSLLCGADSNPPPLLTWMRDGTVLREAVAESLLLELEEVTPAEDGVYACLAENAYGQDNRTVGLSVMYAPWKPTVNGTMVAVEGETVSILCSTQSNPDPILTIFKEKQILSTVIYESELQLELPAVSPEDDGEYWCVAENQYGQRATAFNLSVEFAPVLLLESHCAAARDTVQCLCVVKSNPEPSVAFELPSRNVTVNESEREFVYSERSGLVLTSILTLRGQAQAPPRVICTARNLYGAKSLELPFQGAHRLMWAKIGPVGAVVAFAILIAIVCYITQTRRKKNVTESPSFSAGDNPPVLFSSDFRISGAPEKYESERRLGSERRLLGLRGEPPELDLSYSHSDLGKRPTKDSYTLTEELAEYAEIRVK

T4: PTPRN expressed on cells (human, UniProt Q16849 35-979)
T4 construct: Clone of the Origene human cDNA library; also called Protein tyrosine phosphatase receptor-type N
T4 sequence: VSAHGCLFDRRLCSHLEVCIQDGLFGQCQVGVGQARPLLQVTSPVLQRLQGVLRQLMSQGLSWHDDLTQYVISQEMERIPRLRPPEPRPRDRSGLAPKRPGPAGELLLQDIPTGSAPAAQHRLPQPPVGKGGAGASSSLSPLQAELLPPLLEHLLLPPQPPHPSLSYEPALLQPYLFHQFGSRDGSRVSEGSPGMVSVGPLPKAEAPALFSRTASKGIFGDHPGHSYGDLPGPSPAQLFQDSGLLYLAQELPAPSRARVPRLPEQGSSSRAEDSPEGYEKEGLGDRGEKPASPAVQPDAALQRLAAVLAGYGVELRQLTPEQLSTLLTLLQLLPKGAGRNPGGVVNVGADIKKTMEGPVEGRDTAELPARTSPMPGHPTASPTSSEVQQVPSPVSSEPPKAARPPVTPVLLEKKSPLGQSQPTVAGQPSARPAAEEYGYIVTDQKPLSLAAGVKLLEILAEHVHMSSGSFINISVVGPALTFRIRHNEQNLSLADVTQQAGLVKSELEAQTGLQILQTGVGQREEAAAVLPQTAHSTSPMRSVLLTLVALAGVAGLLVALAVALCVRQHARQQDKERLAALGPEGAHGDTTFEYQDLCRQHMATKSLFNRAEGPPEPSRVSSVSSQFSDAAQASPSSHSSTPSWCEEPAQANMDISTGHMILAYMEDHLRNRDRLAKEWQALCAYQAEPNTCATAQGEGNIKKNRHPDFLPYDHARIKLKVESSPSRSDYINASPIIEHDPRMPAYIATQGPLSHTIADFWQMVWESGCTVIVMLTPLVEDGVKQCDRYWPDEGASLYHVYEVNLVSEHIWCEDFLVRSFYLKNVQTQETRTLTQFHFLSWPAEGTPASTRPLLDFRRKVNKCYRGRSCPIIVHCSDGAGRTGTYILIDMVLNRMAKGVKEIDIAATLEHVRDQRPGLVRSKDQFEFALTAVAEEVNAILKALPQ

B1: mPILRα-Fc (Fc fusion)
chain: not shown
notes: also called mouse PILRα-Fc; WT mPILRα-Fc; not shown: Fc of mouse IgG2a (PILRα-mIgG2a, called PILRα-Fc)
B2: hPILRα-AP (other)
chain: QPSGSTGSGPSYLYGVTQPKHLSASMGGSVEIPFSFYYPWELATAPDVRISWRRGHFHRQSFYSTRPPSIHKDYVNRLFLNWTEGQKSGFLRISNLQKQDQSVYFCRVELDTRSSGRQQWQSIEGTKLSITQAVTTTTQRPSSMTTTWRLSSTTTTTGLRVTQGKRRSDSWHISLET
notes: Used as culture supernatant; also called human PILRα-AP; Alkaline phosphatase (AP)-tagged PILRα construct; not shown: C-terminal alkaline phosphatase (AP) tag

Assays:
[1] = biological target: T5, human COLEC12 expressed on cells (human, UniProt Q5KU26 1-742); assay: flow cytometry, transfected 293T cells, 50 µg/ml; 293T-Neo: 1.1
T5 construct: also called hCOLEC12; C-terminal his tagged hCOLEC12
T5 sequence (Q5KU26 whole entry S522P/G606S): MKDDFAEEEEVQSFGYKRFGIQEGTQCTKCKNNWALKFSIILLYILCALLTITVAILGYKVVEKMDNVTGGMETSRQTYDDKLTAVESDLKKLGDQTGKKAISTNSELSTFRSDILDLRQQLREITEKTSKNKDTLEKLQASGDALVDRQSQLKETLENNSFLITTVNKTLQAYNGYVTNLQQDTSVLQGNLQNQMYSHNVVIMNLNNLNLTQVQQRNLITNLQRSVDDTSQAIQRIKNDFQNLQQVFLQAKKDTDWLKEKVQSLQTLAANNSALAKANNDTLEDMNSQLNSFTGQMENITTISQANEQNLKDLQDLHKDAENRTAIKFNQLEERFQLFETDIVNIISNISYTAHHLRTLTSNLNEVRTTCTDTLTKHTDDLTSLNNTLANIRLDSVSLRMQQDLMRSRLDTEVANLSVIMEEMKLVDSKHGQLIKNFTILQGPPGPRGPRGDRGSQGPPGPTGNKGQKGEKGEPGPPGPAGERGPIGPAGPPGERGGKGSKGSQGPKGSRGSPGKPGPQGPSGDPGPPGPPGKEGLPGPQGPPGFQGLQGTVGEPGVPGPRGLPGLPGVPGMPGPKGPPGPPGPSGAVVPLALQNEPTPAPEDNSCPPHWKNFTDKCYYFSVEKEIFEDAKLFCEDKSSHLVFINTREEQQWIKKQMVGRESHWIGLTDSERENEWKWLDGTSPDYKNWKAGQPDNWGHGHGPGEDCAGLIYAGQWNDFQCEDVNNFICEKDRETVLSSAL

[2] = biological target: T1, mouse CD99 expressed on 293T cells; assay: as above
[3] = biological target: T2, human NPDC1 expressed on cells; assay: as above
[4] = biological target: T3, MAG expressed on cells; assay: flow cytometry, transfected 293T cells, 50 µg/ml
[5] = biological target: T6, IL15-RA expressed on cells (human, UniProt Q13261 31-267); assay: cDNA expression library screen with PILRα-AP supernatant on COS7 transfectants; positive clones further analysed by FACS
T6 construct: Clone of the Origene human cDNA library; also called Interleukin 15 receptor alpha
T6 sequence (Q13261 31-267 limits assumed): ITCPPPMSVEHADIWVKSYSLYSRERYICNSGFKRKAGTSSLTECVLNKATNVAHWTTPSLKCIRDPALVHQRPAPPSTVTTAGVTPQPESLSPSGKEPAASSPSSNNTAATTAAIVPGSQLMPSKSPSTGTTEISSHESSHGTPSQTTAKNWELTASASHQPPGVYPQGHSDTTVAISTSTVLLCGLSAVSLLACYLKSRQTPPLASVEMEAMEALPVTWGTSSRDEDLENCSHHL
Method: (§1) COS7 cells were plated in a 24-well format and transfected with 10 ul of Origene library DNA (Origene, human DNA library containing 20 k genes) per well with Fugene 6 Reagent. Two days later, cells were incubated with human or mouse PILRα-Ap supernatants for 45 min at room temperature (RT). Then cells were fixed with 4% PFA for 15 min at RT. After removing fixation buffer, cells were blocked with 100 mM Glycine in HBS (20 mM Hepes, PH7.2, 150 mM NaCl) for 15 min at RT. Cells were then rinsed and incubated in HBS for 90 min at 65° C. HBS was removed and Western Blue Substrate (Promega) was added and color was developed for 30 min to 1 hr.

[6] = biological target: T4, PTPRN expressed on cells; assay: as above
Method: as §1

[7] = biological target: T5, human COLEC12 expressed on cells; assay: AP staining of transfected COS7 cells with AP fusion supernatant
Method: (§2) 2931 cells were transfected with PILRα-AP-pRK5 constructs and Fugene 6 Transfection Reagent (Roche) according to the manufacturer's instructions. Three days after transfection, supernatants were collected for screening. COS7 cells were plated in a 24-well format and transfected with 10 ul of Origene library DNA (Origene, human DNA library containing 20 k genes) per well with Fugene 6 Reagent. Two days later, cells were incubated with human or mouse PILRα-Ap supernatants for 45 min at room temperature (RT). Then cells were fixed with 4% PFA for 15 min at RT. After removing fixation buffer, cells were blocked with 100 mM Glycine in HBS (20 mM Hepes, PH7.2, 150 mM NaCl) for 15 min at RT. Cells were then rinsed and incubated in HBS for 90 min at 65° C. HBS was removed and Western Blue Substrate (Promega) was added and color was developed for 30 min to 1 hr.

[8] = biological target: T2, human NPDC1 expressed on cells; assay: as above
Method: as §2

Binder	% cells in lower right quadrant [1]	% cells in lower right quadrant [2]	% cells in lower right quadrant [3]	% cells in lower right quadrant [4]	binding result [5]	binding result [6]	binding result [7]	binding result [8]
B1	10.1%	46.4%	40.9%	0.55%	–	–	–	–
B2	–	–	–	–	binds	binds	binds	binds
